± gives the standard error. For part of these data: Variants at the floor of the assay were thinned out.
B1: glmS ribozyme (parent)
chain: AUAAAAGCGCCAGAACUACAGAAAUGUAGUUGACGAGGAGGAGGUUUAUCGAAUUUUCGGCGGAUGCCUCCAAA

What was measured:
Settings in all cases: with glucosamine-6-phosphate
glucosamine-6-phosphate [1] = variants of: B1; assay: kcat; higher = faster cleavage; RNA array
In short: (§1)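 Glucosamine-6-phosphate in HEPES/KCl/Mg(OAc)2 buffer, at 40 μM to 10 mM, was flowed over barcoded ribozyme variants transcribed in situ by E. coli RNA polymerase on sequenced MiSeq chips. Tracking was through a hybridised Cy3 probe at 37 °C. kobs, kcat and KM came from exponential decay fits and weighted Michaelis–Menten fits of normalised per-tile medians.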

glucosamine-6-phosphate [2] = variants of: B1; assay: KM; higher = weaker cofactor use; RNA array
In short: as §1

glucosamine-6-phosphate [3] = variants of: B1; assay: self-cleavage kobs at 160 uM GlcN6P; higher = faster cleavage; RNA array
In short: as §1

glucosamine-6-phosphate [4] = variants of: B1; assay: self-cleavage kobs at 2500 uM GlcN6P; higher = faster cleavage; RNA array
In short: as §1

glucosamine-6-phosphate [5] = variants of: B1; assay: self-cleavage kobs at 10000 uM GlcN6P; higher = faster cleavage; RNA array
In short: as §1

glucosamine-6-phosphate [6] = variants of: B1; assay: self-cleavage kobs at 40 uM GlcN6P; higher = faster cleavage; RNA array
In short: as §1

glucosamine-6-phosphate [7] = variants of: B1; assay: self-cleavage kobs at 640 uM GlcN6P; higher = faster cleavage; RNA array
In short: as §1

Variant | kcat (glucosamine-6-phosphate [1]) | KM (glucosamine-6-phosphate [2]) | self-cleavage kobs at 160 uM GlcN6P (glucosamine-6-phosphate [3]) | self-cleavage kobs at 2500 uM GlcN6P (glucosamine-6-phosphate [4]) | self-cleavage kobs at 10000 uM GlcN6P (glucosamine-6-phosphate [5]) | self-cleavage kobs at 40 uM GlcN6P (glucosamine-6-phosphate [6]) | self-cleavage kobs at 640 uM GlcN6P (glucosamine-6-phosphate [7])
U46G U56C | 0.00203 ± 0.0005 s⁻¹ | 4990 ± 2300 µM | 4.23e-05 ± 2.1e-05 s⁻¹ | 0.000799 ± 0.00013 s⁻¹ | 0.00131 ± 0.00016 s⁻¹ | – | –
U31A A33G C70A | 1.81e-05 ± 5.1e-06 s⁻¹ | – | – | – | – | – | –
G43A U46A | 1.87e-05 ± 2.1e-06 s⁻¹ | – | – | – | – | < 1e-05 s⁻¹ | –
A48U C67A | 0.000213 ± 8.2e-05 s⁻¹ | – | – | 0.000105 ± 2.4e-05 s⁻¹ | 0.000298 ± 4.3e-05 s⁻¹ | – | 0.00012 ± 1.5e-05 s⁻¹
G44U A52U | 1.54e-05 ± 1.1e-06 s⁻¹ | – | – | – | – | < 1e-05 s⁻¹ | < 1e-05 s⁻¹
C16U G38U C71U | 1.14e-05 ± 2e-06 s⁻¹ | – | – | – | – | – | –
U30C G63U | 1.08e-05 ± 3e-06 s⁻¹ | – | – | – | < 1e-05 s⁻¹ | – | –
G37A U55C | 0.000802 ± 5.9e-05 s⁻¹ | 2180 ± 260 µM | 5.1e-05 ± 1.1e-05 s⁻¹ | 0.000404 ± 5.6e-05 s⁻¹ | 0.000676 ± 8.7e-05 s⁻¹ | – | 0.000189 ± 2e-05 s⁻¹
C10U C68U | 1.42e-05 ± 6.5e-06 s⁻¹ | – | – | – | – | < 1e-05 s⁻¹ | –
C58A A64G | 0.000405 ± 6.2e-05 s⁻¹ | 1920 ± 510 µM | 3.91e-05 ± 1.1e-05 s⁻¹ | 0.000214 ± 2.8e-05 s⁻¹ | 0.000399 ± 8.1e-05 s⁻¹ | – | 0.0001 ± 1.5e-05 s⁻¹
G60A | 2.13e-05 ± 1.7e-06 s⁻¹ | – | – | 2.19e-05 ± 2.6e-06 s⁻¹ | 1.98e-05 ± 1.2e-06 s⁻¹ | < 1e-05 s⁻¹ | < 1e-05 s⁻¹
G40U A42G | 0.00742 ± 0.00078 s⁻¹ | 1330 ± 220 µM | 0.00072 ± 0.00018 s⁻¹ | 0.00567 ± 0.001 s⁻¹ | 0.00603 ± 0.001 s⁻¹ | 0.000214 ± 4e-05 s⁻¹ | 0.00267 ± 0.00058 s⁻¹
G29A G37C | 1.28e-05 ± 1.4e-06 s⁻¹ | – | – | – | – | – | –
U46G C70G | 0.00028 ± 2.1e-05 s⁻¹ | 192 ± 44 µM | 0.000122 ± 1.7e-05 s⁻¹ | 0.000263 ± 3.4e-05 s⁻¹ | 0.000258 ± 2.6e-05 s⁻¹ | 4.54e-05 ± 1.1e-05 s⁻¹ | 0.000265 ± 3.3e-05 s⁻¹
A14U C67G | 0.000352 ± 8e-06 s⁻¹ | 1670 ± 68 µM | 3.01e-05 ± 6.5e-06 s⁻¹ | 0.000215 ± 1.7e-05 s⁻¹ | 0.000296 ± 2.9e-05 s⁻¹ | – | 9.71e-05 ± 6.9e-06 s⁻¹
A6G A14U | 0.000128 ± 4.9e-06 s⁻¹ | 1370 ± 180 µM | – | 8.77e-05 ± 1.3e-05 s⁻¹ | 0.000111 ± 1.1e-05 s⁻¹ | – | 3.84e-05 ± 1e-05 s⁻¹
G37C A64C | 1.32e-05 ± 3.3e-06 s⁻¹ | – | – | – | < 1e-05 s⁻¹ | – | –
G43A C68G | 0.000174 ± 1.4e-05 s⁻¹ | 993 ± 160 µM | – | 0.000126 ± 2e-05 s⁻¹ | – | – | 6.69e-05 ± 1.2e-05 s⁻¹
G32C C50U | < 1e-05 s⁻¹ | – | – | – | < 1e-05 s⁻¹ | – | < 1e-05 s⁻¹

Source: the supplement of paper PMC7125110
